Experimental data from the supplement of paper PMC7877785.
± gives the uncertainty stated by the source.

Assay: self-splicing fitness, log relative to wild type (ln ratio); higher = more splicing; Tetrahymena group I intron in knt gene, E. coli kanamycin selection, DiMSum; sequences stand for … in CUCUCU…GGAGGGAAAAGUUAUCAGGCAUGCACCUGGUAGCUAGUCUUUAAACCAAUAGAUUGCAUCGGUUUAAAAGGCAAGACCGUCAAAUUGCGGGAAAGGGGUCAACAGCCGUUCAGUACCAAGUCUCAGGGGAAACUUUGAGAUGGCCUUGCAAAGGGUAUGGUAAUAAGCUGACGGACAUGGUCCUAACCACGCAGCCAAGUCCUAAGUCAACAGAUCUUCUGUUGAUAUGGAUGCAGUUCACAGACUAAAUGUCGGUCGGGGAAGAUGUAUUCUUCUCAUAAGAUAUAGUCGGACCUCUCCUUAAUGGGAGCUAGCGGAUGAAGUGAUGCAACACUGGAGCCGCUGGGAACUAAUUUGUAUGCGAAAGUAUAUUGAUUAGUUUUGGAGUACUCGUGGUCG
Outline: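 The eight P1ex-region nucleotides of an intron in the knt kanamycin-resistance gene on pET-22b(+) were all randomised and the library put into E. coli BL21(DE3). Six replicate transformations were grown overnight at 37°C or 30°C on LB agar with or without 25 μg/mL kanamycin, together with 100 μg/mL carbenicillin, 50 μM IPTG and 0.2% rhamnose. Colonies were pooled and amplicon-sequenced on an Illumina HiSeq 2500. Fitness from DiMSum is the error-weighted combination of wild-type-normalised replicate fold changes, kanamycin over none.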

| Sequence | self-splicing fitness (ln) (30 °C) | self-splicing fitness (ln) (37 °C) |
| --- | --- | --- |
| AAUAAGCAAUAUUACGACAA | -0.398 ± 0.13 | -0.323 ± 0.12 |
| AAUAAGCAAUAUUACGACGU | 0.233 ± 0.057 | 0.618 ± 0.072 |
| AAUAAGCAAUAUUACGAUAC | -2.25 ± 0.25 | -1.44 ± 0.44 |
| AAUAAGCAAUAUUACGAUUG | -2.35 ± 0.18 | -1.91 ± 0.23 |
| AAUAAGCAAUAUUACGCAAA | -1.62 ± 0.23 | -2.05 ± 0.25 |
| AAUAAGCAAUAUUACGCUAA | -2.46 ± 0.16 | -0.891 ± 0.13 |
| AAUAAGCAAUAUUACGCUAG | -1.79 ± 0.18 | -1.17 ± 0.17 |
| AAUAAGCAAUAUUACGCUGC | -3.69 ± 0.3 | -2.67 ± 0.38 |
| AAUAAGCAAUAUUACGCUUA | -3.19 ± 0.26 | -1.74 ± 0.22 |
| AAUAAGCAAUAUUACGGCAU | 0.0296 ± 0.085 | -0.0272 ± 0.097 |
| AAUAAGCAAUAUUACGGGUA | -2.49 ± 0.21 | -1.32 ± 0.14 |
| AAUAAGCAAUAUUACGGGUC | -3.18 ± 0.2 | -2.53 ± 0.22 |
| AAUAAGCAAUAUUACGGUUC | -2.72 ± 0.14 | -1.77 ± 0.15 |
| AAUAAGCAAUAUUACGUAAU | -1.38 ± 0.1 | -0.587 ± 0.13 |
| AAUAAGCAAUAUUACGUAUA | -1.76 ± 0.12 | -1.56 ± 0.13 |
| AAUAAGCAAUAUUACGUCGA | -1.38 ± 0.099 | -0.488 ± 0.12 |
| AAUAAGCAAUAUUACGUCUG | -1.59 ± 0.11 | -0.973 ± 0.11 |
| AAUAAGCAAUAUUACGUGAA | -2.46 ± 0.16 | -0.674 ± 0.13 |
| AAUAAGCAAUAUUACGUUCC | -1.96 ± 0.14 | -1.48 ± 0.18 |
| AAUAAGCAAUAUUACGUUGC | -3.52 ± 0.19 | -2.53 ± 0.2 |
| AAUAAGCAAUAUUACGUUUA | -2.05 ± 0.084 | -1.3 ± 0.096 |
| AAUCAGCAAUAUUACGAAAU | -0.801 ± 0.066 | 0.368 ± 0.092 |
| AAUCAGCAAUAUUACGACAA | -0.758 ± 0.12 | 0.189 ± 0.14 |
| AAUCAGCAAUAUUACGAGUG | -0.769 ± 0.053 | -0.281 ± 0.08 |

| Sequence | self-splicing fitness (ln) (30 °C) | self-splicing fitness (ln) (37 °C) |
| --- | --- | --- |
| AAUCAGCAAUAUUACGAUCG | -0.0405 ± 0.063 | 0.448 ± 0.084 |
| AAUCAGCAAUAUUACGCCUU | 0.109 ± 0.082 | 0.0213 ± 0.1 |
| AAUCAGCAAUAUUACGCGCC | -0.953 ± 0.12 | -0.532 ± 0.13 |
| AAUCAGCAAUAUUACGCUCC | -1.54 ± 0.14 | -0.129 ± 0.11 |
| AAUCAGCAAUAUUACGCUUU | -0.193 ± 0.067 | 0.378 ± 0.1 |
| AAUCAGCAAUAUUACGGCGG | -1.05 ± 0.1 | 0.206 ± 0.14 |
| AAUCAGCAAUAUUACGGGUA | -0.368 ± 0.071 | 0.17 ± 0.081 |
| AAUCAGCAAUAUUACGGGUU | -2.48 ± 0.12 | -2.02 ± 0.13 |
| AAUCAGCAAUAUUACGGUGC | -0.892 ± 0.072 | -0.189 ± 0.082 |
| AAUCAGCAAUAUUACGGUGG | -1.14 ± 0.056 | -0.718 ± 0.076 |
| AAUCAGCAAUAUUACGUAUA | -0.574 ± 0.066 | 0.0946 ± 0.087 |
| AAUCAGCAAUAUUACGUAUU | -1.17 ± 0.053 | -0.697 ± 0.061 |
| AAUCAGCAAUAUUACGUGCU | -3.39 ± 0.17 | -2.56 ± 0.17 |
| AAUCAGCAAUAUUACGUUUG | -2.11 ± 0.092 | -1.94 ± 0.13 |
| AAUGAGCAAUAUUACGAAUU | -2.71 ± 0.28 | -2.3 ± 0.39 |
| AAUGAGCAAUAUUACGACCU | -0.757 ± 0.24 | -0.257 ± 0.41 |
| AAUGAGCAAUAUUACGACUU | -0.422 ± 0.091 | 0.263 ± 0.1 |
| AAUGAGCAAUAUUACGAGCG | -3.49 ± 0.38 | -1.56 ± 0.3 |
| AAUGAGCAAUAUUACGAGGA | -2.86 ± 0.36 | -2.08 ± 0.36 |
| AAUGAGCAAUAUUACGAUAC | -4 ± 0.33 | – |
| AAUGAGCAAUAUUACGAUUG | -1.99 ± 0.38 | -1.14 ± 0.26 |
| AAUGAGCAAUAUUACGCAAU | -2.49 ± 0.23 | -2.25 ± 0.25 |
| AAUGAGCAAUAUUACGCAUA | -2.52 ± 0.19 | -2.42 ± 0.24 |
| AAUGAGCAAUAUUACGCUGG | -3.22 ± 0.2 | -2.08 ± 0.25 |

| Sequence | self-splicing fitness (ln) (30 °C) | self-splicing fitness (ln) (37 °C) |
| --- | --- | --- |
| AAUGAGCAAUAUUACGGCGG | -4.11 ± 0.34 | -2.69 ± 0.29 |
| AAUGAGCAAUAUUACGGCGU | -1.43 ± 0.07 | -0.25 ± 0.097 |
| AAUGAGCAAUAUUACGGGAG | -2.87 ± 0.23 | -3.53 ± 0.42 |
| AAUGAGCAAUAUUACGGGUU | -2.36 ± 0.14 | -2.13 ± 0.2 |
| AAUGAGCAAUAUUACGUACC | – | -2.85 ± 0.27 |
| AAUGAGCAAUAUUACGUCAG | -1.81 ± 0.45 | -2.32 ± 0.42 |
| AAUGAGCAAUAUUACGUCAU | -2.26 ± 0.2 | -1.02 ± 0.18 |
| AAUGAGCAAUAUUACGUCGU | -2.77 ± 0.082 | -1.18 ± 0.086 |
| AAUGAGCAAUAUUACGUGCG | -2 ± 0.15 | -1.99 ± 0.3 |
| AAUGAGCAAUAUUACGUUGC | -4.6 ± 0.45 | -2.78 ± 0.29 |
| AAUUAGCAAUAUUACGAAUU | -2.7 ± 0.15 | -1.1 ± 0.13 |
| AAUUAGCAAUAUUACGAGUC | – | -1.9 ± 0.36 |
| AAUUAGCAAUAUUACGAUUG | -2.58 ± 0.2 | -1.14 ± 0.22 |
| AAUUAGCAAUAUUACGCAAC | -3 ± 0.4 | -1.93 ± 0.24 |
| AAUUAGCAAUAUUACGCAUA | -1.59 ± 0.15 | -2.07 ± 0.15 |
| AAUUAGCAAUAUUACGCCAU | -2.49 ± 0.19 | -1.04 ± 0.16 |
| AAUUAGCAAUAUUACGCGAC | -2.66 ± 0.21 | -1.61 ± 0.24 |
| AAUUAGCAAUAUUACGCGUC | -2.69 ± 0.16 | -1.1 ± 0.14 |
| AAUUAGCAAUAUUACGGCCG | -0.532 ± 0.18 | 0.571 ± 0.28 |
| AAUUAGCAAUAUUACGGCGU | -0.085 ± 0.076 | 0.168 ± 0.1 |
| AAUUAGCAAUAUUACGGGAU | -2.28 ± 0.22 | -1.37 ± 0.2 |
| AAUUAGCAAUAUUACGGGCA | -0.73 ± 0.14 | 0.186 ± 0.11 |
| AAUUAGCAAUAUUACGUCAA | -2.11 ± 0.17 | -0.791 ± 0.22 |
| AAUUAGCAAUAUUACGUCUG | -1.72 ± 0.15 | -0.251 ± 0.17 |

| Sequence | self-splicing fitness (ln) (30 °C) | self-splicing fitness (ln) (37 °C) |
| --- | --- | --- |
| AAUUAGCAAUAUUACGUUAA | -1.19 ± 0.12 | -0.801 ± 0.17 |
| AAUUAGCAAUAUUACGUUCU | -0.609 ± 0.077 | -0.522 ± 0.099 |
| AAUUAGCAAUAUUACGUUUA | -1.6 ± 0.12 | -0.975 ± 0.12 |
| ACAAAGCAAUAUUACGAAAA | -2.93 ± 0.25 | -2.42 ± 0.27 |
| ACAAAGCAAUAUUACGAAAG | -1.59 ± 0.12 | -1.32 ± 0.14 |
| ACAAAGCAAUAUUACGAAGA | -3.03 ± 0.42 | -0.86 ± 0.18 |
| ACAAAGCAAUAUUACGACUG | -0.48 ± 0.06 | -0.066 ± 0.09 |
| ACAAAGCAAUAUUACGAGAA | -2.54 ± 0.28 | -2.87 ± 0.35 |
| ACAAAGCAAUAUUACGAGAC | -3.61 ± 0.21 | -2.57 ± 0.2 |
| ACAAAGCAAUAUUACGAGUG | -1.37 ± 0.068 | -0.772 ± 0.081 |
| ACAAAGCAAUAUUACGCAGU | -3.46 ± 0.2 | -2.78 ± 0.21 |
| ACAAAGCAAUAUUACGCGAC | -2.02 ± 0.11 | -1.16 ± 0.12 |
| ACAAAGCAAUAUUACGCUAA | -2.51 ± 0.13 | -1.14 ± 0.086 |
| ACAAAGCAAUAUUACGCUGA | -2.65 ± 0.2 | -1.14 ± 0.15 |
| ACAAAGCAAUAUUACGGAAA | -2.26 ± 0.18 | -1.7 ± 0.21 |
| ACAAAGCAAUAUUACGGAAG | -2.47 ± 0.091 | -1.61 ± 0.11 |
| ACAAAGCAAUAUUACGGAGU | -3.79 ± 0.15 | -2.9 ± 0.17 |
| ACAAAGCAAUAUUACGGCAU | -0.565 ± 0.046 | 0.328 ± 0.058 |
| ACAAAGCAAUAUUACGGCCC | -0.546 ± 0.13 | -0.479 ± 0.2 |
| ACAAAGCAAUAUUACGGCUA | -0.14 ± 0.054 | -0.0776 ± 0.062 |
| ACAAAGCAAUAUUACGGGGA | -2.95 ± 0.14 | -1.05 ± 0.088 |
| ACAAAGCAAUAUUACGGUUA | -1.58 ± 0.092 | -0.719 ± 0.078 |
| ACAAAGCAAUAUUACGGUUU | -1.71 ± 0.076 | -0.493 ± 0.083 |
| ACAAAGCAAUAUUACGUACC | -1.13 ± 0.1 | -0.353 ± 0.12 |
